Reference: the supplement of paper PMC9170038

System: K4 kissing-loop RNA reporter
Test: apparent KD of K4 kissing-loop reporter; higher = weaker reporter binding
Details: Eterna round: R107
Method: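 RNA-MaP round R107: designed RNA switches with theophylline, tryptophan, arginine or FMN aptamers are transcribed on-chip within common flanks. They are titrated with a labelled K4 kissing-loop RNA reporter in RNA-MaP buffer (100 mM Tris pH 7.5, 80 mM KCl, 4 mM MgCl2), without ligand or with the indicated ligand. Median apparent KD per design.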

[1] = input ligand: theophylline 20 uM
[2] = input ligand: tryptophan 2.4 mM
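Note: bound reporter read as fluorescence of individual clusters on recovered sequencing chips by microscopy, with normalized cluster intensities fitted with a binding model.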

| Sequence | apparent KD of K4 kissing-loop reporter (input ligand: FMN 200 uM) [nM] | apparent KD of K4 kissing-loop reporter (input ligand: arginine 13.2 mM) [nM] | apparent KD of K4 kissing-loop reporter (input ligand: none) [nM] | apparent KD of K4 kissing-loop reporter [1] [nM] | apparent KD of K4 kissing-loop reporter [2] [nM] |
| --- | --- | --- | --- | --- | --- |
| AUUAAUUUCAGAGGAUAUCGUAAUUUUAUUUUAUUUUUUCAUUUAUGCAGUGAUGUUGCAUUUAUUCGAGAAGGCUGAUUUAUAA [JR_SSFMNB_Sub021] | 65.7 | 74.4 | 40.8 | 69.6 | 50.7 |
| ACGUCAUAUGUAAUGGUGGUUUCGAUCGAUACCAGUAGCGAGAGUUACCCUUGGCAGCGACAUGAGUGAUGUUCAUGUAUGAAGA [KL-XTheo-A2 #analogue] | 116 | 109 | 107 | 120 | 105 |
| CCAGCAAAGCUGGUCGCCAAACAACGGGCACGAGGACCGGUACGGCCGCCACUCGUGAGGACGAGUGAUGUUCGUUCACGGGCGA | 815 | 587 | 1690 | 602 | 302 |
| AGUUCUUGCCGAAGGAGCGAGGCAGAGUGAUGUUCUGCAAGAGGUCGAAAGACCUCACUGCCUCAGGUAGGUCGCGGCAUGAACA [Omei KL Arginine B Exc A v4] | 801 | 509 | 930 | 602 | 1050 |
| CGGUACGUCGCAGGAUAUGGAUUCUGGAGUGAUGUUUCAGAGGCAUGCGGAAAACGCAUGCCGACUCCAGAAGGGCGACGUACCG | 752 | 85.8 | 276 | 24 | 376 |
| AAAUUCUUUUUUUUAUUUAACUUUUCAGAAGGAGCGUGGUAGUACACAGGUAGGUCGCUGAAUUUUAGACUAGUGAUGUUAGUUA [JR_SSArginiA_Sub008] | 130 | 156 | 190 | 182 | 151 |
| UGGAUAUAGUGAUGUUAUAUAGAGAGGGAUACCAGUUUAGAGAAGAACCCUUGGCAGCCUAAAGAAGUAUCAUUAGAGAAGAAUG [ExTheophyl.An] | 370 | 229 | 253 | 324 | 241 |
| UAUACACAGGGAGGAUAUGCCCACACAACAACCGAGUGAUGUUCGGACAAUACACAUAAUACACGGGCAGAAGGCCCACAUCACA [SS FNM B Tesla 1] | 143 | 195 | 245 | 192 | 139 |
| GGUUAAAGCACCCGGAGUGAUGUUCCGGAUACCAGCAAACCAACUUGCCCUUGGCAGCCGUAUAGCGUCCGGUGGGCCGAGCAUA [Raarce] | 94.9 | 94.3 | 98.4 | 97.6 | 92.7 |
| UACAGGGAUAGUGAUGUUAUCCCAUGUGAUACCAGUGCCAUCCAACACCCUUGGCAGCAUACGGGCAGUGAUGUUGUUCUUGGUU [Exclusion Theophylline A GF 13] | 96.1 | 85.4 | 93.7 | 87.1 | 88.5 |
| GGAUUCGGCGCGGCCGCCACUUCCGGUGGCUGGUGUCAUGGUGCGCGUGAGUGAUGUUUAUGUGGGAGGACCGGGCGUUGAGUCC [whbob_Ex_Tryp_B_w45] | 577 | 322 | 767 | 441 | 305 |
| AUUUAAUUAACUGAUACCAGACUUAAUGUUUUGUAUAUUACUAGUGAUGUUAGUGAUUCUGUCCCUUGGCAGCAGUAUCUACUUA [JR_ExcTheophyB_Sub014] | 140 | 152 | 152 | 153 | 117 |
| CAUGCCAUGAUCCUCCUGGUAUCUCCUGAUACCAGCGUGCUGACACGCCCUUGGCAGCAGGAGUCGAGAGUGAUGUUGUCGAGAA [KL-SSTheo-A9 #analogue] | 568 | 174 | 184 | 373 | 328 |
| CGCUGGGCGAGUGAUGUUCGCUCACGUGAUACCAGUGCCAUCCAACACCCUUGGCAGCACGCGGGCAGUGAUGUUGUCCUUAGUG [Exclusion Theophylline A GF8] | 127 | 123 | 128 | 125 | 116 |
| AGACCCUGGUAGGAUACCAGCGGCAUGCAGUGCGAGAGAGCGUAGUGAUGUUACGAGACCCGCCCUUGGCAGCCUGGGAAUGUGU [theeternabot_exclusion_KL_Theo_B_50] | 90.1 | 67.8 | 79.8 | 75.5 | 72.6 |
| CAUACGCAUGGAGGAUAUGAGAUUUCUCAUAUUAUUUAUUAUUCUCAGUGAUGUUGGGAUUUAAACUCAGAAGGCCAUGUGUAUG [Ex FMN B 8] | 252 | 176 | 175 | 244 | 199 |
| AUGCGCGCGGCGGCCGCCACUCGCAUGAGAGUGAUGUUCUCGCCGUGCCCGUAAGGGUGCGGUGUGAGGACCGGGCCGGGCUGCG [#2 Same State - Tryptophan B Attempt #20 (HarryS)] | 204 | 107 | 227 | 37.5 | 239 |
| GCCGUAGAUGGAAGGAGCGUGGUCUAGAAGCACAAGUGAUGUUUGUGGUAACCUUCUGACCCACAGGUAGGUCGCCAUCUACGGC | 88.4 | 78.4 | 85.7 | 68.1 | 82.1 |
| GAUUCAGUGAUGUUGGAAGGCGAGCGGGAUACCAGCCGAGACUCAGGCCCUUGGCAGCCCACAUAUCCCAGGUAGAUAGUAGAUC [Same State - Theophylline A (Freestyle 8)] | 193 | 106 | 129 | 166 | 135 |
| AGACUACUGACAGGAUAUAACAUAUUAGCUCGUAUACCAAAGGUAUACGAGCACCUUCUAGUGAUGUUAGAAGGGUCGGUAGUCA [Omei KL FMN B Exc B v1] | 297 | 99.8 | 106 | 96.2 | 118 |
| AGCUAUUAGACGGCCGCCACUUGCUCUGAGACCUGACAUGGAACCAGUGAUGUUGGUUUGCGUGUAAGGACCGGGUUUGGUGGCG [Tiesbi] | 107 | 92.2 | 99.1 | 88.7 | 104 |

| Sequence | apparent KD of K4 kissing-loop reporter (input ligand: FMN 200 uM) [nM] | apparent KD of K4 kissing-loop reporter (input ligand: arginine 13.2 mM) [nM] | apparent KD of K4 kissing-loop reporter (input ligand: none) [nM] | apparent KD of K4 kissing-loop reporter [1] [nM] | apparent KD of K4 kissing-loop reporter [2] [nM] |
| --- | --- | --- | --- | --- | --- |
| AGCAGCAAAUCCUAGUGAUGUUAGGAUAUGUAGGAUAUCGGGAUACCGAGAAGGACAGAAGGAGGAGUGAUGUUCCUAAGCUGCA [FmnAX 24 #DoubleAptamer #DoubleK4 #SwitchBubble] | 143 | 112 | 114 | 122 | 107 |
| AGUGACGAGUGAUGUUCGUGAACACUGGAUACCAGCAGUCUUAUCUGCCCUUGGCAGCCAACGGGAACCGAAUGUUAAGACCUGU [theeternabot_exclusion_KL_Theo_A_4] | 132 | 114 | 129 | 149 | 121 |
| AAGUGUGUGGCGGCCGCCACUAGAAUCCAGUGAUGUUGGAGAUAUCACGUAAGUGAUAUCCACCAUAGGACCGGGCCAUAUAGAA [Same State - Tryptophan B (Freestyle 13)] | 1300 | 758 | 559 | 428 | 483 |
| GGGAGUAGUGCGGCCGCCACUGAGAAAGAAGAAGAAUAUAGUGAUGUUAUAUAGGAAUAAAAGAACAGGACCGGGCAUUAGAUUU [SSTRyptB.T] | 263 | 239 | 255 | 196 | 167 |
| UGUCAUUGGUCUGAUACCAGAAGAAAUCUGGAGUGAUGUUCCAAGUCGACAAAAUGUCGCUUCCCUUGGCAGCAGACCGAUGACU [TheoBS 23 #SwitchBubble 13 #StaticStem] | 393 | 331 | 377 | 222 | 349 |
| ACGUAUAUCAGAGGAUAUCGUAUUAAUAUUUUAUCUAUAUAUAUAUGCAGUGAUGUUGCUAUAAUUCGAGAAGGCUGAUUUACGA [JR_ExcFMNB_Sub011] | 109 | 109 | 84 | 120 | 81.4 |
| UGAUACCAGACGGCCGCCACUCCUAGUGAUGUUAGGAACCUAAAAUAGCAUGUCAAAGACAUGCGGAGGACCGGGUCUGGUAUCU [TrypBX 23 #SwitchBubble #Palindromic #StaticStem] | 111 | 92.1 | 104 | 90.3 | 254 |
| UGAUAGGACAGAAGGAGCGGGAGUGAUGUUCCCAAGGAUUGGUCUAGCAAAGCUGGACCCUCCCAGGUAGGUCGCUGUCCUAUCU [ArgBX 5 #SwitchBubble #StaticStem] | 195 | 223 | 222 | 182 | 191 |
| UUUUUAUUCAGUGAUGUUGAAUUUAUAUCAGAGGAUAUGCAUAAAAGCAGAAGGCUGAAAUACUAUACUUUAAUAAAUUAUAUUU [JR_SSFMNA_Sub017] | 249 | 326 | 320 | 370 | 217 |
| AAAGAUGCGUCGGCCGCCACUGUUGCCAGUGAUGUUGGCAUGUAGAUGCAGUGAUGUUGCGUUUUCAGGACCGGGACGUAAGAUG [5th] | 261 | 253 | 302 | 246 | 134 |
| GACGGGUUGCUGCUCAAUCCGUCGCAUGAUCGAGGACCGGUACGGCCGCCACUCGAGGCCAUGCCGUACGAGUGAUGUUCGUGCG [Xeerlaus] | 387 | 327 | 324 | 388 | 190 |
| CGGAUGUAGUGAUGUUAUAUAAGAAGUAGACGAGGACCGGUACGGCCGCCACUCGAAACGGCUACUAGCGCGUUGCGAGGUGUGC [ExTryptoA.Ch] | 651 | 681 | 549 | 688 | 500 |
| UGGGUGUAGUGAUGUUAUAUAGAGAGUGAUACCAGCUUAGAGAGAAGCCCUUGGCAGCAUAGAAGAGUAUCAUUGGAGGAGGAGG [ExTheophyl.Ay] | 680 | 527 | 609 | 668 | 401 |
| UUUUGGUUCUGAGGAUAUUCGAAGAAAUAUAGUGAUGUUAUAUAAGGAGGAGGAUGGAGGGAGGAAGGAGAAGGCAGAAGAGGAG [ExFMNB.I] | 890 | 492 | 700 | 923 | 417 |
| GGAUAGGACGGAGGAUAUGGUAGUGAUGUUACCAAACUGGUUAAACAUGUCAGAAAACUGGCAUGACCAGAAGGUUGUCCUAUCG [FmnBX 27 G10+U75] | 98.2 | 69 | 94.5 | 44.4 | 73.3 |
| UGAUACCAGACGGCCGCCACUCCUGCAGUCAAAGACUGCAAAGGAAUAUUCGUCCAGUGAUGUUGGAGGACCGGGUCUGGUAUCU [TrypBX 11 #SwitchBubble #Palindromic #StaticStem] | 974 | 698 | 1210 | 701 | 844 |
| UCCUAGGUUCGUCGGCGAAAGCCCUGCGAAGGAGCGUGCGAAAGCACAGGUAGGUCGCGCAGUGAUGUUGCACCUAGGUAAUAAA [#SwitchBubble 23 #K4Late] | 1030 | 672 | 344 | 150 | 781 |
| AGUCCUAUGACGGCCGCCACUCCGGUUAUGAUUUGCCAAGUGAUGUUUGGGUAUCAGGCGAGGCGGAGGACCGGGUCGACCUGCC [theeternabot_exclusion_KL_Trp_B_18] | 171 | 139 | 151 | 129 | 152 |
| AAGCGUAAAAUGGCGGACAUACUGCUCCCACGAGGACCGGUACGGCCGCCACUCGAAUGCGGCAGUGAUGUUGCCGCCUUAGCGU [KL-XTryp-A19] | 84.6 | 77.5 | 79.1 | 75.2 | 76.1 |
| CCGGGCGGCCGAAGGAGCGGGCGGACCCGAGUGAUGUUCGGGUGGACCGUGAGGUCCGGUGCCCAGGUAGGUCGCGGUUCCGUCC [#2 Same State - Arginine B Attempt #6 (HarryS)] | 200 | 101 | 159 | 97.5 | 121 |
| AGUGAUGUGGGAAGGAGCGGUUAAUGAAUUCAGUGAUGUUGAAGUGAUGCUGAAAUGAUGUGCCAGGUAGGUCGCCUAGAUGUUA [KL-XARG B28] | 308 | 164 | 245 | 164 | 203 |
